These results are taken from patent publication US20120270784A1 (THERATECHNOLOGIES, published 2012).

T1: human GRF receptor (human, UniProt Q02643 23-423)
T1 sequence (looked up): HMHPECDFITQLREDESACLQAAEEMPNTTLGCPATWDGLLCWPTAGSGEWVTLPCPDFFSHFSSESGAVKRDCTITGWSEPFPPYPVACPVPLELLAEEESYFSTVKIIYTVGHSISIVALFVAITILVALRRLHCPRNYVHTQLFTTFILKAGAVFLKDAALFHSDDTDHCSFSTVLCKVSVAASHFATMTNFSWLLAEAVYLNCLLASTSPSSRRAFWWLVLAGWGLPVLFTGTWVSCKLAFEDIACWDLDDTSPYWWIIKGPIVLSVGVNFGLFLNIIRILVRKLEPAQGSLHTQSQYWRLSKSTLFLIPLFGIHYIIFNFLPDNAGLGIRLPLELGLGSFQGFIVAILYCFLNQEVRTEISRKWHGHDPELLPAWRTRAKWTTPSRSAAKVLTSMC

B1: Y-a-D-A-I-F-T-D-S-Y-R-K-V-L-A-Q-L-O-A-R-Q-D-I-L-S-r-NH2 (SEQ ID NO: 23) (peptide)
peptide: YXDAIFTDSYRKVLAQLXARQDILSX
HELM: PEPTIDE1{Y.[dA].D.A.I.F.T.D.S.Y.R.K.V.L.A.Q.L.[Orn].A.R.Q.D.I.L.S.[dR].[am]}$$$$V2.0; N-terminus assumed
SMILES: CC[C@H](C)[C@H](NC(=O)[C@H](C)NC(=O)[C@H](CC(=O)O)NC(=O)[C@@H](C)NC(=O)[C@@H](N)Cc1ccc(O)cc1)C(=O)N[C@@H](Cc1ccccc1)C(=O)N[C@H](C(=O)N[C@@H](CC(=O)O)C(=O)N[C@@H](CO)C(=O)N[C@@H](Cc1ccc(O)cc1)C(=O)N[C@@H](CCCNC(=N)N)C(=O)N[C@@H](CCCCN)C(=O)N[C@H](C(=O)N[C@@H](CC(C)C)C(=O)N[C@@H](C)C(=O)N[C@@H](CCC(N)=O)C(=O)N[C@@H](CC(C)C)C(=O)N[C@@H](CCCN)C(=O)N[C@@H](C)C(=O)N[C@@H](CCCNC(=N)N)C(=O)N[C@@H](CCC(N)=O)C(=O)N[C@@H](CC(=O)O)C(=O)N[C@H](C(=O)N[C@@H](CC(C)C)C(=O)N[C@@H](CO)C(=O)N[C@H](CCCNC(=N)N)C(N)=O)[C@@H](C)CC)C(C)C)[C@@H](C)O
B2: Trans-3-hexenoyl-Y-A-D-A-I-F-T-D-S-Y-R-K-V-L-A-Q-L-O-A-R-Q-D-I-L-S-r-NH2 (SEQ ID NO: 24) (peptide)
peptide: YADAIFTDSYRKVLAQLXARQDILSX
HELM: PEPTIDE1{[CC/C=C/CC(=O)[*:2]].Y.A.D.A.I.F.T.D.S.Y.R.K.V.L.A.Q.L.[Orn].A.R.Q.D.I.L.S.[dR].[am]}$$$$V2.0
SMILES: CC/C=C/CC(=O)N[C@@H](Cc1ccc(O)cc1)C(=O)N[C@@H](C)C(=O)N[C@@H](CC(=O)O)C(=O)N[C@@H](C)C(=O)N[C@H](C(=O)N[C@@H](Cc1ccccc1)C(=O)N[C@H](C(=O)N[C@@H](CC(=O)O)C(=O)N[C@@H](CO)C(=O)N[C@@H](Cc1ccc(O)cc1)C(=O)N[C@@H](CCCNC(=N)N)C(=O)N[C@@H](CCCCN)C(=O)N[C@H](C(=O)N[C@@H](CC(C)C)C(=O)N[C@@H](C)C(=O)N[C@@H](CCC(N)=O)C(=O)N[C@@H](CC(C)C)C(=O)N[C@@H](CCCN)C(=O)N[C@@H](C)C(=O)N[C@@H](CCCNC(=N)N)C(=O)N[C@@H](CCC(N)=O)C(=O)N[C@@H](CC(=O)O)C(=O)N[C@H](C(=O)N[C@@H](CC(C)C)C(=O)N[C@@H](CO)C(=O)N[C@H](CCCNC(=N)N)C(N)=O)[C@@H](C)CC)C(C)C)[C@@H](C)O)[C@@H](C)CC
B3: Y-a-DAIFTDSYRKVLAQLKARQDIL-aib-R-NH2 (SEQ ID NO: 22) (peptide)
peptide: YXDAIFTDSYRKVLAQLKARQDILXR
HELM: PEPTIDE1{Y.[dA].D.A.I.F.T.D.S.Y.R.K.V.L.A.Q.L.K.A.R.Q.D.I.L.[Aib].R.[am]}$$$$V2.0; N-terminus assumed
SMILES: CC[C@H](C)[C@H](NC(=O)[C@H](C)NC(=O)[C@H](CC(=O)O)NC(=O)[C@@H](C)NC(=O)[C@@H](N)Cc1ccc(O)cc1)C(=O)N[C@@H](Cc1ccccc1)C(=O)N[C@H](C(=O)N[C@@H](CC(=O)O)C(=O)N[C@@H](CO)C(=O)N[C@@H](Cc1ccc(O)cc1)C(=O)N[C@@H](CCCNC(=N)N)C(=O)N[C@@H](CCCCN)C(=O)N[C@H](C(=O)N[C@@H](CC(C)C)C(=O)N[C@@H](C)C(=O)N[C@@H](CCC(N)=O)C(=O)N[C@@H](CC(C)C)C(=O)N[C@@H](CCCCN)C(=O)N[C@@H](C)C(=O)N[C@@H](CCCNC(=N)N)C(=O)N[C@@H](CCC(N)=O)C(=O)N[C@@H](CC(=O)O)C(=O)N[C@H](C(=O)N[C@@H](CC(C)C)C(=O)NC(C)(C)C(=O)N[C@@H](CCCNC(=N)N)C(N)=O)[C@@H](C)CC)C(C)C)[C@@H](C)O
B4: Trans-3-hexenoyl-YADAIFTDSYRKVLAQLKARQDILAR-NH2 (SEQ ID NO: 20) (peptide)
peptide: YADAIFTDSYRKVLAQLKARQDILAR
HELM: PEPTIDE1{[CC/C=C/CC(=O)[*:2]].Y.A.D.A.I.F.T.D.S.Y.R.K.V.L.A.Q.L.K.A.R.Q.D.I.L.A.R.[am]}$$$$V2.0
SMILES: CC/C=C/CC(=O)N[C@@H](Cc1ccc(O)cc1)C(=O)N[C@@H](C)C(=O)N[C@@H](CC(=O)O)C(=O)N[C@@H](C)C(=O)N[C@H](C(=O)N[C@@H](Cc1ccccc1)C(=O)N[C@H](C(=O)N[C@@H](CC(=O)O)C(=O)N[C@@H](CO)C(=O)N[C@@H](Cc1ccc(O)cc1)C(=O)N[C@@H](CCCNC(=N)N)C(=O)N[C@@H](CCCCN)C(=O)N[C@H](C(=O)N[C@@H](CC(C)C)C(=O)N[C@@H](C)C(=O)N[C@@H](CCC(N)=O)C(=O)N[C@@H](CC(C)C)C(=O)N[C@@H](CCCCN)C(=O)N[C@@H](C)C(=O)N[C@@H](CCCNC(=N)N)C(=O)N[C@@H](CCC(N)=O)C(=O)N[C@@H](CC(=O)O)C(=O)N[C@H](C(=O)N[C@@H](CC(C)C)C(=O)N[C@@H](C)C(=O)N[C@@H](CCCNC(=N)N)C(N)=O)[C@@H](C)CC)C(C)C)[C@@H](C)O)[C@@H](C)CC
B5: Y-a-DAIFTDSYRKVLAQLKARQDILS-r-NH2 (SEQ ID NO: 21) (peptide)
peptide: YXDAIFTDSYRKVLAQLKARQDILSX
HELM: PEPTIDE1{Y.[dA].D.A.I.F.T.D.S.Y.R.K.V.L.A.Q.L.K.A.R.Q.D.I.L.S.[dR].[am]}$$$$V2.0; N-terminus assumed
SMILES: CC[C@H](C)[C@H](NC(=O)[C@H](C)NC(=O)[C@H](CC(=O)O)NC(=O)[C@@H](C)NC(=O)[C@@H](N)Cc1ccc(O)cc1)C(=O)N[C@@H](Cc1ccccc1)C(=O)N[C@H](C(=O)N[C@@H](CC(=O)O)C(=O)N[C@@H](CO)C(=O)N[C@@H](Cc1ccc(O)cc1)C(=O)N[C@@H](CCCNC(=N)N)C(=O)N[C@@H](CCCCN)C(=O)N[C@H](C(=O)N[C@@H](CC(C)C)C(=O)N[C@@H](C)C(=O)N[C@@H](CCC(N)=O)C(=O)N[C@@H](CC(C)C)C(=O)N[C@@H](CCCCN)C(=O)N[C@@H](C)C(=O)N[C@@H](CCCNC(=N)N)C(=O)N[C@@H](CCC(N)=O)C(=O)N[C@@H](CC(=O)O)C(=O)N[C@H](C(=O)N[C@@H](CC(C)C)C(=O)N[C@@H](CO)C(=O)N[C@H](CCCNC(=N)N)C(N)=O)[C@@H](C)CC)C(C)C)[C@@H](C)O

The test concerns the target T1, human GRF receptor. Description: cell-based or functional assay.
With B1, the “EC50 as assessed by alkaline phosphatase (AP) induction” value (“EC50 as assessed” below) is 1.14 nM. Turning to B2, the “EC50 as assessed” value came to 1.18 nM. As for B3, the figure is 0.72 nM. As for B4, the figure is 0.98 nM. For B5, the “EC50 as assessed” value was determined as 2.47 nM.
